Key:
[1] = biological target: therapeutic human IgG1 (human); test: affinity precipitation: 5 mM C12-Z33 with 20 µM IgG1, 0.6 M Na2SO4, absorbance of the supernate at 280 nm
IgG [2] = test: affinity precipitation: C12-VVEE to binding molecule 50:1, binding molecule to IgG 10:2, 1 M ammonium sulfate
IgG [3] = test: affinity precipitation: co-assembled with C12-VVEE at 10:1, binding molecule to IgG 10:1, 1 M ammonium sulfate, IgG in the supernatant by ProA column
IgG [4] = test: affinity precipitation: C12-VVEE to binding molecule 50:1, binding molecule to IgG 10:1, 1 M ammonium sulfate
[5] = biological target: therapeutic human IgG1 (human); test: ITC, 15 °C, PBS pH 7.4, reported per IgG1
[6] = biological target: therapeutic human IgG1 (human); test: ITC, 15 °C, PBS pH 7.4, reported per ligand

With “C12-Z33 immuno-amphiphile (self-assembled immunofibers) (peptide)” the IgG1 removed from the supernate [1] was greater than 60%.

“C12-VVKKGG-Z33 binding molecule (peptide)” was tested, and the IgG precipitation yield (IgG [2]) was 75%, the IgG precipitated out from the solution (IgG [3]) was 30% and the IgG precipitation yield (IgG [4]) was 99%.

In the case of Z33 peptide, the -TΔS° [5] is reported as 43.4 kcal/mol, the ΔG° [5] is reported as -10 kcal/mol and the ΔH° [5] is reported as -53.4 kcal/mol. For the same substance, the -TΔS° [6] was 13.6 kcal/mol, the Kd [6] was 60 nM and the ΔG° [6] was -9.5 kcal/mol. It also gave a ΔH° [6] of -23.1 kcal/mol.
